Data reported in patent publication US20040014191A1, “Nitroreductase enzymes” (priority 1999, published 2004).
“Also recorded” adds a separate entry of the source. Read-outs that look alike come from different tables or passages of the source.

How the values were obtained:
[1] = test system: Efa 1; experiment: Kinetic parameters for Efa 1; format: biochemical, Enterococcus faecalis
From the text: This gene is more highly related in sequence to ydgI compared to the other sequences used to search databases.

[2] = target: YodC (Bacillus subtilis, UniProt P81102); experiment: Substrate and cofactor specificity for YodC
Procedure: (§1) Quantitative assays using CB 1954 or SN 23862 as substrate were carried out at 37° C. by HPLC as previously described (2) (3). […] Incubation times varied according to the enzyme activity being studied.
(§2) Assays were carried out spectrophotometrically at 37° C. in 10 mM Tris pH 7.5 using cytochrome c as terminal electron acceptor.

[3] = target: C. jejuni NfnB (Campylobacter jejuni, UniProt Q0P9I8)
[4] = target: H. influenzae NfnB (Haemophilus influenzae, UniProt Q57431)
[5] = test system: Pae3; experiment: Kinetic parameters for Pae3; format: biochemical, Pseudomonas aeruginosa; conditions: menadione as substrate, NADPH as cofactor
Procedure: […] […] Incubation times varied according to the enzyme activity being studied.
The protein encoded by Pae3 was overexpressed in E. coli and purified by anion exchange chromatography.

[6] = test system: Smu2; experiment: Kinetic parameters for Smu2; format: biochemical, Streptococcus mutans
Procedure: as §1

[7] = test system: Cc1cc2nc3c(=O)[nH]c(=O)nc-3n(C[C@H](O)[C@H](O)[C@H](O)COP(=O)(O)O)c2cc1C; experiment: purified protein, by the assay type; conditions: other: flavin substrates, cofactor not given; pH 7.0; 37.0 °C
[8] = test system: Cc1cc2nc3c(=O)[nH]c(=O)nc-3n(C[C@H](O)[C@H](O)[C@H](O)COP(=O)(O)OP(=O)(O)OC[C@H]3O[C@@H](n4cnc5c(N)ncnc54)[C@H](O)[C@@H]3O)c2cc1C; experiment: purified protein, by the assay type; conditions: other: flavin substrates, cofactor not given; pH 7.0; 37.0 °C
[9] = test system: CC1=CC(=O)c2ccccc2C1=O; experiment: purified protein, by the assay type; conditions: other: 1 mM NADPH; pH 7.0; 37.0 °C
[10] = format: biochemical; conditions: Table 6
[11] = Nitroreductase enzyme assay with CB 1954 as substrate (HPLC); format: biochemical; conditions: for CB 1954 product: Table 6, recombinant enzymes
[12] = test system: recombinant enzymes (antigens); experiment: Western blots of antigens with rabbit antisera; format: binding; conditions: antisera 1/10000 or 1/20000, ECL detection
Procedure: Recombinant enzymes were run on SDS PAGE 4-20% gradient at 0.05, 0.5, 5, 50 and 500 ng with 500 ng of the other antigens to test cross-reactivity. The antisera were added at a dilution of 1/10 000 or 1/20 000. Secondary antibody dilutions were as shown above and detection was by ECL (Amersham).
Antigens were run on SDS PAGE 4-20% gradient at 0.05, 0.5, 5, 50 and 500 ng with 500 ng of other antigens to test cross-reactivity. The antisera were added at a dilution of 1/10000 (α-P. gingivalis YwrO, α-YwrO BAM and α-H. influenzae NfnB) or 1/20000 (α-E. coli B NfnB and α-YdgI). Secondary antibody dilutions were as shown above and detection was by ECL.

[13] = test system: recombinant enzymes (antigens); experiment: Polyclonal antisera titres by ELISA; format: binding; conditions: rabbit antiserum; for Post-boost titre: 10 days after booster; for Pre-boost titre (50%): after 8 weeks
Procedure: Polyclonal antisera were raised against recombinant enzymes by immunising rabbits with […] of protein in 50% PBS:50% Freund's complete adjuvant, total volume 400 μl. Blood was collected by ear bleed after 6-8 weeks and again 10 days after a booster immunisation of protein, and titre assessed by ELISA. 96-well plates were coated with 1 μg ml^−1 of the proteins and blocked with 10% v/v foetal calf serum (FCS), antibodies were diluted in assay buffer (1% FCS) and applied in doubling dilutions across the plate from 1 in 100 to 1 in 51 200 or 1 in 150 to 1 in 76 800. A secondary antibody conjugated with HRP (dilution 1 in 10 000) was used to develop the assay with 3,3′,5,5′-tetramethylbenzidine (TMB) as substrate.
Antisera to E. coli B NfnB and six novel proteins (Haemophilus influenzae and Campylobacter jejuni NfnB homologues, YdgI and YodC of Bacillus subtilis, YwrO of B. amyloliquefaciens and Porphyromonas gingivalis YwrO homologue) have been raised in rabbits by inoculation with 100 μg of protein in PBS+ Freund's complete adjuvant. Titres were assessed by ELISA after 8 weeks, and 10 days after a booster inoculation of a further 100 μg of protein per rabbit. Pre-immune sera were also tested.
96 well plates were coated overnight at 4° C. with the antigens at 1 μg/ml. After washing and blocking antisera were added in doubling dilutions in an appropriate range across the plates. The plates were developed using goat anti-rabbit IgG peroxidase conjugate with TMB as substrate, and read at 450 nm.

[14] = Nitroreductase enzyme assay with SN 23862 as substrate (HPLC); format: biochemical
[15] = format: biochemical; conditions: Table 6; remark: listed apart in the source
[16] = Quinone reductase assay with menadione, cytochrome c as terminal electron acceptor; format: biochemical; conditions: for Quinone reductase: Table 6
Procedure: as §2

[17] = Flavin reductase assay with FMN and FAD; format: biochemical; conditions: for Flavin reductase: Table 6
Procedure: as §2

[18] = test system: V79 cells; experiment: In vitro cytotoxicity test, prodrug + enzyme + cofactor, SRB assay; format: cell-based; conditions: for in vitro cytotoxicity of SN 23862 with enzyme: FIG. 4
Procedure: Microtitre plates (96 well) were obtained pre-seeded with V79 cells at 10,000 cells/ml (European Collection of Animal Cell Cultures, ECACC) in DMEM+10% foetal calf serum. All treatments were prepared on duplicate plates and transferred to the cells prior to adding enzyme (10 μl) to the appropriate wells. […] Enzymes were diluted in sterile PBS. All aqueous solutions were filter sterilised before use and operations carried out aseptically in a laminar flow hood. […] Cytotoxicity was quantified by sulphorhodamine B (SRB) assay. Briefly, the growth medium was removed and the cells fixed by addition of 100 μl per well of cold 10% TCA for 30 min. The TCA was removed and the fixed cells washed with water before adding 100 μl per well of 0.4% dye in 1% acetic acid and incubating at room temperature for 30 min. Excess dye was removed and the wells washed 4 times with 1% acetic acid. After air drying at room temperature the dye was solubilised by adding 100 μl of 10 mM Tris to each well and shaking for 15 min. […] Cytotoxicity towards treated cells was expressed as % of A492 of untreated controls and statistical analysis was performed using the Mann-Whitney test. ED50's were caculated using probit analysis.

[19] = substrates, NADPH preferred cofactor
[20] = Table 6, 37° C., read-out: Km CB 1954
[21] = listed as P. gingivalis YwrO homologue
[22] = listed as YwrO of P. gingivalis

YodC, sequence (P81102 2-202): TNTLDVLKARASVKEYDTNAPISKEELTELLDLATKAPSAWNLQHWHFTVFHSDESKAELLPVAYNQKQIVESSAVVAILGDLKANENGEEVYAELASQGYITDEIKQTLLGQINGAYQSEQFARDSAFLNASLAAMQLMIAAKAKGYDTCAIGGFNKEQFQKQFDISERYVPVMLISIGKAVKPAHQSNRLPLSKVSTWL
C. jejuni NfnB, sequence (Q0P9I8 entry or part of it): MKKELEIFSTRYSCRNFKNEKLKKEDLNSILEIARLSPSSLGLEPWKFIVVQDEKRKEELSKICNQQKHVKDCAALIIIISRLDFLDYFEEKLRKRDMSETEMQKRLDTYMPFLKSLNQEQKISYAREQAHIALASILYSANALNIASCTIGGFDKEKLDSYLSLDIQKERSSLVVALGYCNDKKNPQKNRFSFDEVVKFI

For `CC1=CC(=O)c2ccccc2C1=O` [Menadione], the Ksi [1] was 18.0 µM, the Km ([1]; substrates, cofactor not given) was 107 µM and the kcat ([1]; substrates, cofactor not given) was 264.8 s⁻¹. It also gave a kcat ([2]; cofactor NADH) of 415.4 ± 14.8 s⁻¹, a Km ([2]; cofactor NADH, 37° C., 10 mM Tris pH 7.5) of 1 ± 0.1 µM and a Km ([2]; cofactor NADPH) of 1.6 ± 0.2 µM. The kcat ([2]; cofactor NADPH) was 329.5 ± 18.4 s⁻¹, the kcat ([3]; 1 mM NADPH) was 66.1 s⁻¹ and the kcat ([4]; 1 mM NADH) was 24.1. For the same molecule, the kcat ([4]; 1 mM NADPH) was 177.8, the Km [5] was 3.8 µM and the Ksi [5] was 18.0 µM. For the same molecule, the kcat [5] was 153.4 s⁻¹, the Km [6, 19] was 2.7 µM and the kcat [6, 19] was 201.0 s⁻¹.

Molecule “C. jejuni NfnB (Campylobacter jejuni subsp. jejuni NCTC 11168 = ATCC 700819)” has a Km [7] of 0.7 ± 0.2 μM μM, a Km [8] of 3.3 ± 0.4 μM μM and a Km [9] of 1.3 ± 0.2 μM μM.

For NADPH, the kcat ([3]; 20 μM menadione) was 62.5 s⁻¹, the kcat ([4]; menadione 100 μM) was 154.2 and the Km [5] was 308 µM. The kcat [5] was 33.8 s⁻¹, the Km ([6]; 100 uM menadione) was 1.3 µM and the kcat ([6]; 100 uM menadione) was 188.7 s⁻¹.

B1: P. gingivalis YwrO: nitroreductase from Porphyromonas gingivalis, SEQ ID NO: 25 (protein, listed as Porphyromonas gingivalis)
chain: MKKTLVIVVHPDLTKSVINKAWAKAIEGAATIHHLYEQYPNGQIDLAHEQALLEAHDRIVFQFPLYWYAAPYLLKKWMDEVFTEGWAYGAGGDKMEGKEICAAVSCGSPKSAFAEGAQQCHTLRSYLNVFDGIAAFLRARFTGYHACYDSYNPRLPEMLPANCEAYLRFIKGE
In the case of B1, the Cofactor [10] is reported as “NADH”, the “kcat (CB 1954)” value [11] is reported as 3.2 s⁻¹ and the kcat for CB1954 (text) [11] is reported as 3.2 s⁻¹. The “reduction of CB1954: activity and product formed” value [11] was “only the 4HX reduction product”, the Km [11, 20] was 1200 µM and the “CB 1954 product” value [11] was 4HX. For the same molecule, the Km ([11]; read-out: Km for CB1954) was 1200 µM, the “amount of antigen detected by its antiserum in Western blot” value [12] was 500 ng and the Post-boost titre [13] was 3100. For the same molecule, the “Pre-boost titre (50%)” value [13] was 1000, the “SN 23862 acitvity” value ([14]; Table 6) was “Yes” and the “activity with SN23862” value [14, 21] was “active with SN23862; also recorded: too slow for kinetic parameters to be calculated accurately”. The Azo-Reductase [15] was “Yes”, the Quinone reductase [16] was “No” and the “activity with menadione / quinone reductase” value [16, 21] was “inactive with menadione or flavins”. For the same molecule, the “activity with menadione / quinone reductase” value [16, 22] was “little activity with menadione or flavins”, the Flavin reductase [17] was “No” and the “flavin reductase activity” value [17, 21] was “inactive with menadione or flavins”. The “flavin reductase activity” value [17, 22] was “little activity with menadione or flavins” and the “in vitro cytotoxicity of SN 23862 with enzyme” value [18] was “lack of activity”.

B2: H. influenzae NfnB: nitroreductase from H. influenzae, SEQ ID NO: 17 (protein, listed as Haemophilus influenzae)
chain: MTQLTREQVLELFHQRSSTRYYDPTKKISDEDFECILECGRLSPSSVGSEPWKFLVIQNKTLREKMKPFSWGMINQLDNCSHLVVILAKKNARYDSPFFVDVMARKGLNAEQQQAALTKYKALQEEDMKLLENDRTLFDWCSKQTYIALANMLTGASALGIDSCPIEGFHYDKMNECLAEEGLFDPQEYAVSVAATFGYRSRDIAKKSRKGLDEVVKWVG
For B2, the Cofactor [10] was “NADPH”, the “reduction of CB1954: activity and product formed” value [11] was “form the 4HX reduction product of CB1954” and the “kcat (CB 1954)” value ([11]; Table 6, 37° C.) was 56.2 s⁻¹. The Km [11, 20] was 690 µM, the “CB 1954 product” value [11] was 4HX and the Post-boost titre [13] was 760. The “Pre-boost titre (50%)” value [13] was 180, the “activity with SN23862” value [14] was “weak activity with SN23862” and the “SN 23862 acitvity, second number of the cell (kcat)” value ([14]; Table 6, HPLC assay) was 39.8. The Km ([14]; Table 6, HPLC assay, read-out: SN 23862 acitvity, first number of the cell (Km)) was 3360 µM, the Azo-Reductase [15] was “No” and the “activity with menadione / quinone reductase” value [16] was “lacks activity with the quinone menadione”. For the same molecule, the Quinone reductase [16] was “Yes”, the Flavin reductase [17] was “Weak” and the “flavin reductase activity” value ([17]; listed as H. influenzae NfnB homologue) was “lacks activity with the quinone menadione and flavins FMN or FAD; also recorded: little activity”. For the same molecule, the “in vitro cytotoxicity of CB 1954 with enzyme” value ([18]; FIG. 3) was “most potent” and the “in vitro cytotoxicity of SN 23862 with enzyme” value [18] was “most potent”.
